Key:
[1] = target: human GLT25D1/COLGALT1 (wild type) (human) (UniProt Q8NBJ5); experiment: SEC-MALS
[2] = target: human GLT25D1/COLGALT1 (wild type) (human) (UniProt Q8NBJ5); experiment: SEC-SAXS
[3] = target: human GLT25D1/COLGALT1 (wild type) (human) (UniProt Q8NBJ5); experiment: mass photometry

stoichiometry N [1]: 2 | stoichiometry N [2]: 2 | stoichiometry N [3]: 2
Substance: human GLT25D1/COLGALT1 (wild type) (from UniProt Q8NBJ5 30-618) (enzyme)
